Experimental data reported in patent publication US20140314784A1 (MEDLMMUNE, published 2014).
Residue numbers refer to the chain shown, from its start. Where two headings read alike, the source gives them in different places. One block for each binder: values may come before it.

Assays:
CCR4 = target: T1, CCR4 (human, UniProt P51679 1-360); experiment: FACS on CCR4 transfected CHO cells, parental cells as control
T1 construct: whole, on cells
T1 sequence (looked up): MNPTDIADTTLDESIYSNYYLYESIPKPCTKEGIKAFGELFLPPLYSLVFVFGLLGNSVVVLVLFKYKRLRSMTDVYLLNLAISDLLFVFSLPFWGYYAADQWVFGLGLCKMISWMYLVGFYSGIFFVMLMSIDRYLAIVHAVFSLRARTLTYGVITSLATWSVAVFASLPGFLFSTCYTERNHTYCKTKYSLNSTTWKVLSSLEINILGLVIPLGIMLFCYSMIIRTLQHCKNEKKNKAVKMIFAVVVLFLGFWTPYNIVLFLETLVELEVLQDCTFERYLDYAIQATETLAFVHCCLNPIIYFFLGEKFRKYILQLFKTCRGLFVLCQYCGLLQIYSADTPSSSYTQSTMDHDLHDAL
Experimental: (§1) CXCR4 is a GPCR, with few close homologues in the family of human GPCRs. Among these are CXCR3 and CCR4. […] The samples were analyzed on a FACS Caliber cytometer.

human CXCR4 [1] = target: T2, human CXCR4 (human, UniProt P61073 1-352); experiment: cell-based or functional assay
human CXCR4 [2] = target: T2, human CXCR4; experiment: FACS binding under antigen limiting conditions on Jurkat cells, Kinexa software fit
Experimental: (§2) FACS binding under antigen limiting conditions was utilized to estimate the affinities of antibodies to the CXCR4 receptor. Jurkat cells were washed in RPMI1640 medium and plated at 50,000 cells per well in duplicate for incubation with 4-fold dilution series of antibody in duplicate, ranging between 150,000 and 0.143 pM. Incubation was carried out at 4° C. overnight, followed by wash step (3 times in PBS) and staining with Goat anti-human Fc−Cy5 secondary antibody+5 μg/mL 7-Amino-Actinomycin (7AAD) for 40 minutes at 4° C. Samples were analyzed on a FACSCaliber following another round of 3 washes in PBS. […] The negative geo mean was entered into Kinexa analysis software as an estimate of antibody “depletion” under limited antigen conditions, and the equilibrium dissociation constant (KD) was estimated from the curve fit.

human CXCR4 [3] = target: T2, human CXCR4; experiment: FACS, hybridoma supernatant pre-incubated with human CXCR4 transfected HEK293T cells, competitor Alexa-647 SDF-1
cynomolgus monkey CXCR4 [4] = target: T3, cynomolgus monkey CXCR4 (cynomolgus monkey, UniProt Q28474 1-352); experiment: FMAT, hybridoma supernatant on HEK293T cells transiently overexpressing full-length cynomolgus CXCR4
T3 construct: whole, on cells; On transiently transfected HEK293T cells or endogenous on the cynomolgus T-cell line HSC-F; also called Cynomolgus CXCR4
Experimental: (§3) Supernatants collected from harvested cells were tested to assess the ability of the secreted antibodies to bind to HEK293T cells transiently overexpressing either full-length human, murine or cynomolgus monkey CXCR4. […] Cells diluted in PBS containing 2% FBS were seeded at a density of 3000 expressing and 15000 mock transfected cells per well in 384 well plates (Corning Costar, catalog #3712). Immediately after plating, 15 or 20 μl/well of hybridoma supernatants and 10 μl/well of secondary antibody (Goat anti-human IgG Fc Cy5, final concentration 750 ng/ml) were added and plates incubated for 3 hours at room temperature prior to reading the fluorescence on the FMAT 8200 instrument (Applied Biosystems). The product of number of positive events and fluorescence intensity was used as a measure of binding strength.

human CXCR4 [5] = target: T2, human CXCR4; experiment: cell-based or functional assay; remark: listed apart in the source
human CXCR3 = target: T4, human CXCR3 (human, UniProt P49682 1-368); experiment: FACS on human CXCR3 transfected HEK293 cells, parental cells as control
T4 construct: whole, on cells
T4 sequence (looked up): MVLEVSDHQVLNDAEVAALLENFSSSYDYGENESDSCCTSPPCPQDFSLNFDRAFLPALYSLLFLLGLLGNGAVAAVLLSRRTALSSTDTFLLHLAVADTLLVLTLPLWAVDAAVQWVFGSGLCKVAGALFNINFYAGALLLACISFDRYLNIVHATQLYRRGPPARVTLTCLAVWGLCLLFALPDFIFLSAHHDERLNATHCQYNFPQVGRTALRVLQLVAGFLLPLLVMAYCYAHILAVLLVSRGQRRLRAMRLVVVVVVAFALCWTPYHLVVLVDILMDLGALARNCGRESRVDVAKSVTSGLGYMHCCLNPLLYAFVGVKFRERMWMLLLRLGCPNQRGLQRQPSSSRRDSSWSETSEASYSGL
Experimental: as §1

human CXCR4 [6] = target: T2, human CXCR4; experiment: FMAT, hybridoma supernatant on HEK293T cells transiently overexpressing full-length human CXCR4
Experimental: as §3

mouse CXCR4 = target: T5, mouse CXCR4 (mouse, UniProt P70658 1-359); experiment: FMAT, hybridoma supernatant on HEK293T cells transiently overexpressing full-length mouse CXCR4
T5 construct: Full-length murine CXCR4 on transiently transfected HEK293T cells; also native on mouse lymphocytes and the EL4 line; also called murine CXCR4
Experimental: as §3

cynomolgus monkey CXCR4 [7] = target: T3, cynomolgus monkey CXCR4; experiment: Kinexa-based on-cell affinity (FACS) on cynomolgus T-cell line HSC-F
human CXCR4 [8] = target: T2, human CXCR4; experiment: cell-based or functional assay; remark: listed apart in the source
human CXCR4 [9] = target: T2, human CXCR4; experiment: FACS binding under antigen limiting conditions on Jurkat cells, Kinexa software fit; experiment 1
Experimental: as §2

human CXCR4 [10] = target: T2, human CXCR4; experiment: FACS competition on formalin-fixed Namalwa cells: 10 nM biotinylated SDF-1 bound first, then displaced by 6C7; streptavidin-PE readout
human CXCR4 [11] = target: T2, human CXCR4; experiment: FACS binding under antigen limiting conditions on Jurkat cells, Kinexa software fit; experiment 2
Experimental: as §2

T5 sequence (P70658 whole entry): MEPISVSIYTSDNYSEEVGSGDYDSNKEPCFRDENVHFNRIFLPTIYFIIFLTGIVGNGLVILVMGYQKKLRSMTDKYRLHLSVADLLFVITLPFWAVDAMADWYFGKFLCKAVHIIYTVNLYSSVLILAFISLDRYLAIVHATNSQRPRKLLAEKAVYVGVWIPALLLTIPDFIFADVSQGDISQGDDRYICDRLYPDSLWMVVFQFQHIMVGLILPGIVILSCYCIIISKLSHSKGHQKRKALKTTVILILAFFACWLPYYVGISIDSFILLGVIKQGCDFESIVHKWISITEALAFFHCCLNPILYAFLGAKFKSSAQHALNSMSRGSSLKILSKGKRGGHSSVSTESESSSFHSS
T2 sequence (P61073 whole entry): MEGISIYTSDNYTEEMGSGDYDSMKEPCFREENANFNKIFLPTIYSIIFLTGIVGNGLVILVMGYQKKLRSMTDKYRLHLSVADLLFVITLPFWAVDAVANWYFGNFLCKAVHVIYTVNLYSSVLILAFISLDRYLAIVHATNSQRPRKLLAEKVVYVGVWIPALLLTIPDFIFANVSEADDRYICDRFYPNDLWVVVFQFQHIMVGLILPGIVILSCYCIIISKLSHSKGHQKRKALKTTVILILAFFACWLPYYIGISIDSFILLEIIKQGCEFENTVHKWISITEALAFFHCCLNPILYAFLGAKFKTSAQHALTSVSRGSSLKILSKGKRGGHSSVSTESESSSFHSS
T3 sequence (Q28474 whole entry): as the sequence (P61073 whole entry) above, with M24I, N35H, K38R, R146K, N176S counted along it

binding result (CCR4): no binding (tested: 10 and 100 ug/ml) | % Inhibition 1 hr (Jurkat chemotaxis) (human CXCR4 [1]): 81.3% | % Inhibition 24 hr (Jurkat chemotaxis) (human CXCR4 [1]): -27% | Kd (human CXCR4 [2]): 2.2 nM | % Inhibition of SDF-1 binding (human CXCR4 [3]): 35% | Count (cynomolgus monkey CXCR4 [4]): 46 | FL1 (cynomolgus monkey CXCR4 [4]): 6360 | FL1 x count (cynomolgus monkey CXCR4 [4]): 293000 | Jurkat chemotaxis inhibition IC50 pM (human CXCR4 [5]): 1220 pM | Jurkat chemotaxis inhibition IC50 (human CXCR4 [5]): 0.182 µg/mL | binding result (human CXCR3): no binding (tested: 10 and 100 ug/ml) | Count (human CXCR4 [6]): 183 | FL1 (human CXCR4 [6]): 8330 | FL1 x count (human CXCR4 [6]): 1.52e+06 | Count (mouse CXCR4): 5 | FL1 (mouse CXCR4): 1490 | FL1 x count (mouse CXCR4): 7440
B1: 4C1 (antibody, V domains shown)
VH: QVQLVESGGGVVQPGRSLRLSCAASGFTFSSYGMHWVRQAPGKGLEWVAVISYDGSNKYYADSVKGRFTISRDNSKNTLYLQMNSLRAEDTAVYYCTRGGLAARRNYYYSYGMDVWGQGTTVTVSS
VL: DIQMTQSPSSLSASVGDRVTITCRASQDIRNDLGWYQQKPGKAPKRLIYAASSLQSGVPSRFSGSGSGTQFTLTISSLQPEDFATYYCLQHNSYPLTFGGGTKVQIK
notes: Fully human monoclonal antibody from XenoMouse hybridoma (strains XMG2 IgG2 or XMG4 IgG4, kappa/lambda); Tested as hybridoma supernatant or purified antibody; also called mAb 4C1; Mab4C1

binding result (CCR4): no binding (tested: 10 and 100 ug/ml) | Kd (cynomolgus monkey CXCR4 [7]): 0.221 nM | % Inhibition 1 hr (Jurkat chemotaxis) (human CXCR4 [1]): 99.6% | % Inhibition 24 hr (Jurkat chemotaxis) (human CXCR4 [1]): 95% | Jurkat chemotaxis inhibition IC50 (human CXCR4 [8]): 0.068 nM | % Inhibition of SDF-1 binding (human CXCR4 [3]): 88% | Count (cynomolgus monkey CXCR4 [4]): 125 | FL1 (cynomolgus monkey CXCR4 [4]): 3470 | FL1 x count (cynomolgus monkey CXCR4 [4]): 434000 | Jurkat chemotaxis inhibition IC50 pM (human CXCR4 [5]): 74.7 pM | Jurkat chemotaxis inhibition IC50 (human CXCR4 [5]): 0.0112 µg/mL | Kd (human CXCR4 [9]): 0.242 nM | binding result (human CXCR3): no binding (tested: 10 and 100 ug/ml) | Count (human CXCR4 [6]): 199 | FL1 (human CXCR4 [6]): 7990 | FL1 x count (human CXCR4 [6]): 1.59e+06 | IC50 (human CXCR4 [10]): 0.123 nM | IC50 (read off the curve) (human CXCR4 [10]): ~0.1 nM | Kd (human CXCR4 [11]): 0.768 nM
B2: 6C7 (antibody, V domains shown)
VH: QVQLVESGGGVVQPGRSLRLSCAASGFTFSNYVMHWVRQAPGKGLEWVAVIWYDGSNKYYADSVKGRFTISRDNSKNTLSLQMNSLRAEDTAVYYCERGEGYYGSGSRYRGYYYGMDVWGQGTTVTVSS
VL: B1 VL with D28G, N31T, Q70E, L96R, G100Q, Q105E
notes: Fully human monoclonal antibody from XenoMouse hybridoma; also called antibody 6C7; mAb 6C7

binding result (CCR4): no binding (tested: 10 and 100 ug/ml) | % Inhibition 1 hr (Jurkat chemotaxis) (human CXCR4 [1]): 48.3% | % Inhibition 24 hr (Jurkat chemotaxis) (human CXCR4 [1]): -34% | Kd (human CXCR4 [2]): 0.363 nM | % Inhibition of SDF-1 binding (human CXCR4 [3]): 75% | Count (cynomolgus monkey CXCR4 [4]): 137 | FL1 (cynomolgus monkey CXCR4 [4]): 4680 | FL1 x count (cynomolgus monkey CXCR4 [4]): 642000 | Jurkat chemotaxis inhibition IC50 pM (human CXCR4 [5]): 1570 pM | Jurkat chemotaxis inhibition IC50 (human CXCR4 [5]): 0.236 µg/mL | binding result (human CXCR3): no binding (tested: 10 and 100 ug/ml) | Count (human CXCR4 [6]): 184 | FL1 (human CXCR4 [6]): 7940 | FL1 x count (human CXCR4 [6]): 1.46e+06 | Count (mouse CXCR4): 9 | FL1 (mouse CXCR4): 2400 | FL1 x count (mouse CXCR4): 21600
B3: 7C8 (antibody, V domains shown)
VH: QVQLVESGGGVVQPGRSLRLSCAASGFTFSSYGMHWVRQAPGKGLEWVAVIWYDGTYKYYADSVRGRFTISRDNSKNTLYLQMNSLRAEDTAVYYCARGPLLRYFDWLSDYWGQGTLVTVSS
VL: B1 VL with D28G, S52T, Q70E, S93N, L96R, Q105E
notes: Fully human monoclonal antibody from XenoMouse hybridoma
